Reference: the supplement of paper PMC9170038

Test system: MS2 coat protein
Test: apparent KD of MS2 coat protein; designed switch direction (-1 OFF switch, 1 ON switch): -1; higher = weaker reporter binding
How it was run: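 On Illumina chips, designed RNA switches with common flanks were made by stalled E. coli RNA polymerase. Titrations with SNAP-549-labelled MS2 coat protein, doubling from 0.7 or 1.5 nM to 3 µM, were done with no input, with 200 uM small-molecule ligand, or with an oligonucleotide input. Apparent KD is the median per design over clusters, from curve fits of normalised cluster fluorescence.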

[1] = input ligand: microRNA oligo, concentration not stated
[2] = Eterna round: R95, input ligand: FMN 200 uM
[3] = Eterna round: R95, input ligand: microRNA oligo, concentration not stated
[4] = Eterna round: R95, input ligand: none

| Sequence | apparent KD of MS2 coat protein (input ligand: FMN 200 uM) [nM] | apparent KD of MS2 coat protein [1] [nM] | apparent KD of MS2 coat protein (input ligand: none) [nM] | apparent KD of MS2 coat protein [2] [nM] | apparent KD of MS2 coat protein [3] [nM] | apparent KD of MS2 coat protein [4] [nM] |
| --- | --- | --- | --- | --- | --- | --- |
| UUAUUGUAUGUAGGAUAUGCGUAUUAUUGUUAUGCAGAAGGACAUGAGGAUCACCCAUGUAUAUUAUUGUUAUAUAUUAUAUAU [Title] (Eterna round: R96, puzzle: Exclusion NG 1) | 60.9 | 22.7 | 26.7 |  |  |  |
| GAGGGACAUGAGGAUCACCCAUGUGAGGAUAUGUGAGAAGGAUUGGAGAGAAUAAGAAACAGAAGGCGCUGUAG [JR_Exclu1_Sub088] (puzzle: Exclusion 1) |  |  |  | 107 | 88.9 | 138 |
| GCGCGGCGUGUAGGAUAUGCGCGCGGGUCGCGCGCAGAAGGACAUGAGGAUCACCCAUGUGGCGCGCUUGGCGCGCCGCCGCGC [-48, -45 kcal and 14% A] (Eterna round: R96, puzzle: Exclusion NG 1) | 16.6 | 9.64 | 12.9 |  |  |  |
| CAGUGCGUAGGAUAUACGAGGGCCCUUUAUUGUUGAUAAUGACAUGAGGAUCACCCAUGUAGAAGGGCGUCAUG [Eternabot (L1) Solution 45] (Eterna round: R97, puzzle: Exclusion 2) | 87.3 |  | 24.8 |  |  |  |
| AGAUCGUCAGGAUAUACAUGAGGAUCACCCAUGUAUAGUCUAAAUUUGACUAUAAGAUGUAGAAGGGACGAUCG [Exclusion 3 (MOD5 of #1 Marzena11)] (Eterna round: R97, puzzle: Exclusion 3) | 75.8 |  | 21.4 |  |  |  |
| CUUUUGUGAGGAUAUCAGUAGUAAAUAAAUAAAUUUACUACUGAGAAGGCACAUGAGGAUCACCCAUGUUCCUC [salish99_ex3_r3_084] (puzzle: Exclusion 4) |  |  |  |  | 45.4 |  |
| CUUAAUUGUCACAUGGGUGACAUGAGGAUCACCCAUGUCACAAGCUUUUUGUUCGUCUUAUAAUUAACCCAUGUGAC [Stov1/12-B3] (Eterna round: R97, puzzle: Sensor, turn-off variant 1) | 13.8 |  | 13.7 |  |  |  |
| UGUUGUUGCGCAGGAUAUUGCCAACAGGCAGUAGGAUAUCCGAAAGGAGAAGGACCGCCAACAGGCGAGAAGGGCGGGACAACU [pwkr exNG2 2xF7 2xFMN.12] (Eterna round: R96, puzzle: Exclusion NG 2) | 93.9 | 44.5 | 64.3 |  |  |  |
| UAAAAGCUAGGAUAUACAUGAGGAUCACCCAUGUAUUAGGGCAUGAAAUCGGUCCCACGUAGAAGGAGCGACAC [Dilaxeed] (Eterna round: R97, puzzle: Exclusion 3) | 105 |  | 24.5 |  |  |  |
| ACCUCACAUGAGGAUCACCCAUGUCAGGAUAUCUAAUGUAGUCGCGUUCCCGACGCUAAGAGAAGGGACGUUAA [EX1 #35] (Eterna round: R97, puzzle: Exclusion 1) | 14.6 |  | 16.1 |  |  |  |
| CACAAAGUAGGAUAUAGAAUAAAAGACAUGAGGAUCACCCAUGUGUCGUUCAAGGUGAACCUAGAAGGACUGAAAA [EX5 A.28] (Eterna round: R97, puzzle: Exclusion 5) | 45.1 |  | 116 |  |  |  |
| GCGAAAGCAAGCAAGUGAAACAUGAGGAUCACCCAUGUCCUCAUUUGCUCGUCUUAUAAGCUAUGCGAAAGCAUAGC [Sensor 3, v1 - 2] (puzzle: Sensor v3, turn-off variant 1) |  |  |  | 13.9 | 220 | 10.5 |
| GAUUAUGCGAGCUUUAGGGACAUGAGGAUCACCCAUGUUCGUCUUAUUGGUCUAAAUGCACUAACAUACCUAAAUCU [JMF 23] (puzzle: Sensor v3, turn-off variant 1) |  |  |  | 17.7 | 22.4 | 19.3 |
| CAUGUCUGAGGAUAUCGUUUUUUGUACAUGAGGAUCACCCAUGUCCUAUUUUUUUUAUUUCGAGAAGGCAGUGUAU [JR_E5_Sub092] (puzzle: Exclusion 5) |  |  |  |  | 32.6 |  |
| CCGGAAAUACAGGAUAUAGGAGUCAAUAGACUCCUAGAAGGGUAUACAUGAGGAUCACCCAUGUGUCCUACCGG [Fiskers Ex 6 - 66] (Eterna round: R96, puzzle: Exclusion 6) | 39.9 | 23.3 | 27.7 |  |  |  |
| GAUCCUUUUACGGACGUCUCGAAACAUGAGGAUCACCCAUGUGAGGAUAUCUCCGAAAGGUCGGCAGAGAAGGCACAAUAACAA [MOD2 Eternabot solution 19 score 84.66] (Eterna round: R96, puzzle: Exclusion NG 3) | 29.4 | 13 | 18.7 |  |  |  |
| AGCUGUGGCCGAGGAUAUCUAUCUCAUAAAACCGAAAUAUAAUCGGACAUGAGGAUCACCCAUGUAGAGAAGGCGGUCUCAGCA [Eli eng2 - 095] (Eterna round: R96, puzzle: Exclusion NG 2) |  | 20.1 |  |  |  |  |
